Results reported in patent US20240092919A1 (Ablynx, published 2024).
Positions count from the first letter of the chain named. Numbers in names are those of the source.

T1: Human T cell receptor on human primary T cells (human, UniProt P01848 1-140; P01850 1-176)
T1 TCR alpha (looked up): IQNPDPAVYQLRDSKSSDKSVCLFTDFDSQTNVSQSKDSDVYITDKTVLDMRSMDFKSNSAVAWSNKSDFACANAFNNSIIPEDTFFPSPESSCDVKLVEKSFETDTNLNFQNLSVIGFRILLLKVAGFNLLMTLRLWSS
T1 TCR beta (looked up): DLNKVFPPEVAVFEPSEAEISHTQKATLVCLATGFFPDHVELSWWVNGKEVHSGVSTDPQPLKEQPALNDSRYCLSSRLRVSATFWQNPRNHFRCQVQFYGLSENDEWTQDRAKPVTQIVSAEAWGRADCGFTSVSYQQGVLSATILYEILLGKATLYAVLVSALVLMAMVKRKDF

T2: Cynomolgus TCR(AEA41865/AEA41866)-zipper protein (cynomolgus monkey)
T2 construct: also called cyTCR-zipper protein; cynoTCR zipper
T2 TCR alpha: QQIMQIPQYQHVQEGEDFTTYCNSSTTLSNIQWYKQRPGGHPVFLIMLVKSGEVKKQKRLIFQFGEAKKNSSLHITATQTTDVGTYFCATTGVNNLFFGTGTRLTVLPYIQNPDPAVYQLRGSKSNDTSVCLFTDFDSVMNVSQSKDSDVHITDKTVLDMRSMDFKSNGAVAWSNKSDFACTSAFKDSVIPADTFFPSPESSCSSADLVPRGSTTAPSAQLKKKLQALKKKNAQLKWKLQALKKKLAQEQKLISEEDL
T2 TCR beta: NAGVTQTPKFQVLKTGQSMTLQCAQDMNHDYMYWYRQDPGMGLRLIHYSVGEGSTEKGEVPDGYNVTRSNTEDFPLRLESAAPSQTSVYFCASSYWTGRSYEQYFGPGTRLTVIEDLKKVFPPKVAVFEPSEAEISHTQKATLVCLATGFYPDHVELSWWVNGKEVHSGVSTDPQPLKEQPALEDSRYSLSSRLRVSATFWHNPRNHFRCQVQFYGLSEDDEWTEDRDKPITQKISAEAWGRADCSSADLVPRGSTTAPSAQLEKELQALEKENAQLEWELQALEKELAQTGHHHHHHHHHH

T3: Cynomolgus TCR(AEA41865/AEA41866)-zipper protein (cynomolgus monkey)
T3 construct: also called cyTCR-zipper protein; cynoTCR zipper
T3 TCR alpha: T2 TCR alpha
T3 TCR beta: T2 TCR beta

B1: T017000630 (bispecific antibody)
chain: DVQLVESGGGLVQAGGSLRLSCAASGITSKINDMGWYRQTPGNYREWVASITATGTTNYRDSVKGRFTISRDNAKSTVYLQMNSLKPEDTTVYYCNTFPPISNFWGQGTLVTVSSGGGGSGGGGSGGGGSGGGGSGGGGSGGGGSGGGGSEVQLVESGGGVVQPGGSLRLSCVASWDVHKINFYGWYRQAPGKEREKVAHISIGDQTDYADSAKGRFTISRDESKNTVYLQMNSLRPEDTALYYCRALSKIWPYDYWGQGTLVTVSSA
notes: also called A0110056A10(E1D)-35GS-T0170056G05(L11V, G26W, L34Y, M77T, K83R, V89L, F91Y, F95L, R97K, Y99W)-A
B2: T017000640 (bispecific antibody)
chain: B1 chain with G185T, K250R
notes: also called A0110056A10(E1D)-35GS-T0170056G05(L11V, G26W, L34Y, G35T, M77T, K83R, V89L, F91Y, F95L, Y99W)-A
B3: T017000643 (bispecific antibody)
chain: B1 chain with G185T
notes: also called A0110056A10(E1D)-35GS-T0170056G05(L11V, G26W, L34Y, G35T, M77T, K83R, V89L, F91Y, F95L, R97K, Y99W)-A
B4: T017000631 (bispecific antibody)
chain: B1 chain with W176Y
notes: also called A0110056A10(E1D)-35GS-T0170056G05(L11V, G26Y, L34Y, M77T, K83R, V89L, F91Y, F95L, R97K, Y99W)-A
B5: T017000128 (bispecific antibody)
chain: DVQLVESGGGLVQPGGSLRLSCVASGDVHKINFLGWYRQAPGKEREKVAHISIGDQTDYADSAKGRFTISRDESKNMVYLQMNSLKPEDTAVYFCRAFSRIYPYDYWGQGTLVTVSSGGGGSGGGGSGGGGSGGGGSGGGGSGGGGSGGGGSEVQLVESGGGLVQAGGSLRLSCAASGITSKINDMGWYRQTPGNYREWVASITATGTTNYRDSVKGRFTISRDNAKSTVYLQMNSLKPEDTTVYYCNTFPPISNFWGQGTLVTVSSA
B6: T017000639 (bispecific antibody)
chain: B5 chain with L11V, G26W, L34Y, G35T, M77T, K86R, V92L, F94Y, F98L, Y102W
B7: T017000636 (bispecific antibody)
chain: B5 chain with L11V, G26W, K30Q, L34Y, M77T, K86R, V92L, F94Y, F98L, Y102W
B8: T017000642 (bispecific antibody)
chain: DVQLVESGGGVVQPGGSLRLSCVASWDVHKINFYTWYRQAPGKEREKVAHISIGDQTDYADSAKGRFTISRDESKNTVYLQMNSLRPEDTALYYCRALSKIWPYDYWGQGTLVTVSSGGGGSGGGGSGGGGSGGGGSGGGGSGGGGSGGGGSEVQLVESGGGLVQAGGSLRLSCAASGITSKINDMGWYRQTPGNYREWVASITATGTTNYRDSVKGRFTISRDNAKSTVYLQMNSLKPEDTTVYYCNTFPPISNFWGQGTLVTVSSA
B9: T017000627 (bispecific antibody)
chain: B8 chain with T35G
B10: T017000613 (VHH)
VHH: EVQLVESGGGVVQPGGSLRLSCVASWDVHKINFYGWYRQAPGKEREKVAHISIGDQTDYADSAKGRFTISRDESKNMVYLQMNSLRPEDTALYFCRALSKIWPYDYWGQGTLVTVSS
B11: T017000602 (VHH)
VHH: B10 VHH with K30Q, Y34L, L98F
B12: T017000569 (VHH)
VHH: B10 VHH with W26G, I31L, Y34L, L98M, K100R
B13: T017000358 (VHH)
VHH: B10 VHH with W26G, D27A, I31L, Y34L, L98M, K100R
B14: T017000383 (VHH)
VHH: B10 VHH with W26G, K30Q, Y34L, L98M, K100R
B15: T017000468 (VHH)
VHH: B10 VHH with W26G, D27S, L98F, K100R
B16: T017000390 (VHH)
VHH: B10 VHH with K30Q, Y34L, L98M
B17: T017000615 (VHH)
VHH: B10 VHH with W26Y
B18: T017000691 (VHH, not shown: small tags and cut ends)
VHH: B10 VHH with D27E, K30Q, M77T, F94Y, K100R
B19: T017000625 (VHH, not shown: small tags and cut ends)
VHH: B10 VHH with W26Y, M77T, F94Y
B20: T017000623 (VHH, not shown: small tags and cut ends)
VHH: B10 VHH with M77T, F94Y
B21: T017000641 (VHH, not shown: small tags and cut ends)
VHH: B10 VHH with G35T, M77T, F94Y
B22: T017000635 (VHH, not shown: small tags and cut ends)
VHH: B10 VHH with K30Q, M77T, F94Y, K100R
B23: T017000141 (VHH, not shown: small tags and cut ends)
VHH: B10 VHH with W26G, Y34L, L98F, K100R, W102Y
notes: also called T0170000141

Biological target: T1, Human T cell receptor on human primary …
Test: cell-based or functional assay
For % Lysis, T cell mediated MOLM-13 cell killing, cynomolgus primary T cells, E:T 10:1 in this document: test concentration or dose not given here.
For % Lysis, T cell mediated MOLM-13 cell killing, human primary T cells, E:T 10:1 in this document: test concentration or dose not given here.

Binder	% Lysis, T cell mediated MOLM-13 cell killing, human primary T cells, E:T 10:1	EC50 (M), T cell mediated MOLM-13 cell killing, human primary T cells, E:T 10:1
B1	0%	
B2	37%	5.7e-10 M
B3	0%	
B4	0%	
B5	32%	2.3e-10 M
B6	42%	3.6e-11 M
B7	36%	6.6e-11 M
B8	32%	3e-10 M
B9	36%	2.4e-10 M

The binders below were run against T4, Cynomolgus T cell receptor on cynomolgus primary T cells (cynomolgus monkey) (assay: cell-based or functional assay).

Binder	EC50 (M), T cell mediated MOLM-13 cell killing, cynomolgus primary T cells, E:T 10:1	% Lysis, T cell mediated MOLM-13 cell killing, cynomolgus primary T cells, E:T 10:1
B1	4.5e-10 M	
B2		6%
B3	1.6e-10 M	12%
B4	2e-10 M	35%
B5	1.7e-10 M	37%
B6	4.1e-11 M	28%
B7	6.7e-11 M	20%
B8	4e-11 M	37%
B9	3.8e-11 M	19%

Biological target: T1, Human T cell receptor on human primary …
Test: cell-based or functional assay
Remark: another data set of the same source

Binder	% lysis, MOLM-13, Human T cell mediated killing	EC50 (M), MOLM-13, Human T cell mediated killing
B5	24%	3e-10 M

Biological target: T4, Cynomolgus T cell receptor on …
Test: cell-based or functional assay
Remark: another data set of the same source

Binder	% lysis, MOLM-13, Cynomolgus T cell mediated killing	EC50 (M), MOLM-13, Cynomolgus T cell mediated killing
B5	37%	4.1e-10 M

Biological target: T1, Human T cell receptor on human primary …
Test: cell-based or functional assay
Remark: another data set of the same source

Binder	% lysis, KG-1a, Human T cell mediated killing	EC50 (M), KG-1a, Human T cell mediated killing
B5	51%	1.3e-09 M

Biological target: T4, Cynomolgus T cell receptor on …
Test: cell-based or functional assay
Remark: another data set of the same source

Binder	% lysis, KG-1a, Cynomolgus T cell mediated killing	EC50 (M), KG-1a, Cynomolgus T cell mediated killing
B5	61%	6.7e-10 M

Biological target: T1, Human T cell receptor on human primary …
Test: cell-based or functional assay
Remark: another data set of the same source

Binder	IC50 (M), xCELLigence CHO Flp-In huCD123 cell killing, Human T cell mediated killing
B5	1.4e-11 M

Biological target: T4, Cynomolgus T cell receptor on …
Test: cell-based or functional assay
Remark: another data set of the same source

Binder	IC50 (M), xCELLigence CHO Flp-In huCD123 cell killing, Cynomolgus T cell mediated killing
B5	1.9e-11 M

Biological target: T2, Cynomolgus …
Test: SPR ProteOn off-rate screen

koff	Binder
0.000364 s⁻¹	B10
0.00055 s⁻¹	B11
0.00308 s⁻¹	B12
0.00115 s⁻¹	B13
0.00216 s⁻¹	B14
0.00141 s⁻¹	B15
0.000221 s⁻¹	B16
0.00087 s⁻¹	B17

Biological target: T1, Human T cell receptor on human primary …
Test: flow cytometry, human primary T cells

EC50	Binder
150 nM	B18
230 nM	B19
280 nM	B20
270 nM	B21
70 nM	B22

Biological target: T3, Cynomolgus …
Test: SPR, ProteOn XPR36, 25 C, immobilised TCR-zipper
Description: HuTCR-zipper or cyTCR-zipper protein was immobilized on a GLC sensor chip (between 100-200 RU) via amine coupling chemistry, using EDC/NHS for activation of the carboxyl groups on the chip surface (running buffer: HBS-EP+, pH7.4). […] Processed sensorgrams were fitted with the Langmuir model (1:1 interaction) using ProteOn Manager 3.1.0 (Version 3.1.0.6) software.

Kd	Binder
240 nM	B1
15000 nM	B2
900 nM	B3
290 nM	B4
44 nM	B6
29 nM	B7
5.5 nM	B8
5.2 nM	B9

Biological target: T2, Cynomolgus …
Test: ratio higher/lower kd on huTCR- and cyTCR-zipper (SPR)
Description: Unique ISVD clones, i.e. clones with a unique sequence, were subsequently selected and screened to determine their off-rate. To this purpose, the ISVD containing periplasmic extracts were screened on huTCR-zipper and cyTCR-zipper protein by SPR on a ProteOn XPR36 instrument. The zipper proteins were immobilized on a GLC sensor chip (between 4300 and 5100RU) via amine coupling chemistry, using EDC/sulfo-NHS for activation of the carboxyl groups on the chip surface (running buffer: HBS-EP+, pH7.4). Periplasmic extracts were injected at 1/10 dilution for 2 min (at a flow rate of 45 μL/min) and dissociation was followed for 900 s. A pulse of 100 s of 3 M MgCl2 at 45 μL/min was used for regeneration. […] Processed sensorgrams were fitted with the Langmuir model (1:1 interaction) using ProteOn Manager 3.1.0 (Version 3.1.0.6) software.

gap in off-rate human vs cyno	Binder
7.5 fold	B23
1 fold	B10
2 fold	B11
9 fold	B12
8 fold	B13
5 fold	B14
8 fold	B15
3 fold	B16
1.1 fold	B17

Biological target: T3, Cynomolgus …
Test: higher koff divided by lower koff, humanTCR zipper vs cynoTCR zipper (SPR)

Gap in off-rate human vs cyno	Binder
> 61.1 fold	B18
1 fold	B19
1 fold	B20
1.1 fold	B21
> 55.9 fold	B22
